Assays:
[1] = test system: S-11 NK-TALEN (synthetic); test: cell_activity; details: monomer SSA assay
[2] = test system: S-23 NK-TALEN (synthetic); test: cell_activity; details: monomer SSA assay
[3] = test system: S-36 NK-TALEN (synthetic); test: cell_activity; details: monomer SSA assay
[4] = test system: S-34 NK-TALEN (synthetic); test: cell_activity; details: monomer SSA assay
[5] = test system: S-32 NK-TALEN (synthetic); test: cell_activity; details: monomer SSA assay
[6] = test system: S-30 NK-TALEN (synthetic); test: cell_activity; details: monomer SSA assay
[7] = test system: S-28 NK-TALEN (synthetic); test: cell_activity; details: monomer SSA assay
[8] = test system: S-26 NK-TALEN (synthetic); test: cell_activity; details: monomer SSA assay
[9] = test system: S-40 NK-TALEN (synthetic); test: cell_activity; details: monomer SSA assay
[10] = test system: S-41 NK-TALEN (synthetic); test: cell_activity; details: monomer SSA assay
[11] = test system: S-03 NK-TALEN (synthetic); test: cell_activity; details: monomer SSA assay
[12] = test system: S-04 NK-TALEN (synthetic); test: cell_activity; details: monomer SSA assay
[13] = test system: S-08 NK-TALEN (synthetic); test: cell_activity; details: monomer SSA assay
[14] = test system: S-06 NK-TALEN (synthetic); test: cell_activity; details: monomer SSA assay
[15] = test system: S-24 NK-TALEN (synthetic); test: cell_activity; details: monomer SSA assay
[16] = test system: S-22 NK-TALEN (synthetic); test: cell_activity; details: monomer SSA assay
[17] = test system: S-15 NK-TALEN (synthetic); test: cell_activity; details: monomer SSA assay
[18] = test system: S-38 NK-TALEN (synthetic); test: cell_activity; details: monomer SSA assay
[19] = test system: S-25 NK-TALEN (synthetic); test: cell_activity; details: monomer SSA assay
[20] = test system: S-16 NK-TALEN (synthetic); test: cell_activity; details: monomer SSA assay
[21] = test system: S-17 NK-TALEN (synthetic); test: cell_activity; details: monomer SSA assay
[22] = test system: S-18 NK-TALEN (synthetic); test: cell_activity; details: monomer SSA assay
[23] = test system: S-19 NK-TALEN (synthetic); test: cell_activity; details: monomer SSA assay
[24] = test system: S-20 NK-TALEN (synthetic); test: cell_activity; details: monomer SSA assay
[25] = test system: S-21 NK-TALEN (synthetic); test: cell_activity; details: monomer SSA assay
[26] = test system: S-13 NK-TALEN (synthetic); test: cell_activity; details: monomer SSA assay
[27] = test system: S-09 NK-TALEN (synthetic); test: cell_activity; details: monomer SSA assay
[28] = test system: S-37 NK-TALEN (synthetic); test: cell_activity; details: monomer SSA assay
[29] = test system: S-35 NK-TALEN (synthetic); test: cell_activity; details: monomer SSA assay
[30] = test system: S-33 NK-TALEN (synthetic); test: cell_activity; details: monomer SSA assay
[31] = test system: S-31 NK-TALEN (synthetic); test: cell_activity; details: monomer SSA assay
[32] = test system: S-29 NK-TALEN (synthetic); test: cell_activity; details: monomer SSA assay
[33] = test system: S-27 NK-TALEN (synthetic); test: cell_activity; details: monomer SSA assay
[34] = test system: S-42 NK-TALEN (synthetic); test: cell_activity; details: monomer SSA assay
[35] = test system: S-43 NK-TALEN (synthetic); test: cell_activity; details: monomer SSA assay
[36] = test system: S-44 NK-TALEN (synthetic); test: cell_activity; details: monomer SSA assay
[37] = test system: S-10 NK-TALEN (synthetic); test: cell_activity; details: monomer SSA assay
[38] = test system: S-39 NK-TALEN (synthetic); test: cell_activity; details: monomer SSA assay
[39] = test system: S-12 NK-TALEN (synthetic); test: cell_activity; details: monomer SSA assay
[40] = molecular target: T1, S-05 (S5) NK-TALEN (synthetic); test: cell_activity; monomer SSA assay; details: tags: 3xFLAG, NLS, FokI
T1 chain: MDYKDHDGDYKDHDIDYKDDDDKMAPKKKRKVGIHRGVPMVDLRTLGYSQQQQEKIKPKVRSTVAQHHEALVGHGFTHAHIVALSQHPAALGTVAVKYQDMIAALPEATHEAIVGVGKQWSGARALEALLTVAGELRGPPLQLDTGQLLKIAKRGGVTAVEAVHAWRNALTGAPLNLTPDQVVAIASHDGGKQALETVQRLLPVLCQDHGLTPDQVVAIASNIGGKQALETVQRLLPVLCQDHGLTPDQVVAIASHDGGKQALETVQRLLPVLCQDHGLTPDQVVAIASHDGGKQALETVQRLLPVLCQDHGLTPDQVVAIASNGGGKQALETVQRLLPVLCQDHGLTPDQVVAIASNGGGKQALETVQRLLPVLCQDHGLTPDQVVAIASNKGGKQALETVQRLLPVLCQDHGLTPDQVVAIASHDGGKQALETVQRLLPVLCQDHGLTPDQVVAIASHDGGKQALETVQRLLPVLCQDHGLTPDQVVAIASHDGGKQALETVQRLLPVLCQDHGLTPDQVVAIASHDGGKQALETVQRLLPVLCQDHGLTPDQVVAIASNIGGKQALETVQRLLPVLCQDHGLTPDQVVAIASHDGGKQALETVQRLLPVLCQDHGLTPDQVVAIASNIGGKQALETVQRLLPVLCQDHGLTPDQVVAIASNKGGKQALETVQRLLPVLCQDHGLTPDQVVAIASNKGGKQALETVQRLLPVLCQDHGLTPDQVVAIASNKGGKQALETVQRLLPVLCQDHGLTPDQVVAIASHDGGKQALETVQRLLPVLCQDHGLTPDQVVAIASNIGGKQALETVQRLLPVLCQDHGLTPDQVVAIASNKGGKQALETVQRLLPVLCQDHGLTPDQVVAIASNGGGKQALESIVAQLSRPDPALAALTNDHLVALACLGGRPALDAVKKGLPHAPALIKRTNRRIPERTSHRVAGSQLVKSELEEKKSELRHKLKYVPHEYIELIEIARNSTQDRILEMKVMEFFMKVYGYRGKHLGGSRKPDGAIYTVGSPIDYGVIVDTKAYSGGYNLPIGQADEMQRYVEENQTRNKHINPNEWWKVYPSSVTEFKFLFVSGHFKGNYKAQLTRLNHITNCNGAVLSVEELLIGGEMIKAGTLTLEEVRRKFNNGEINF
Method: HEK293T cells (ATCC) were cultured in Dulbecco's Modified Eagle Medium (Sigma) supplemented with 10% FBS and 2 mM L-Glutamine. Cells were seeded 80,000 per well of a 24-well plate. After 4 h, cells were transfected with 200 ng of the TALEN plasmid (or 100 ng of each TALEN for hetero-dimeric pairs) and 10 ng of the corresponding SSA reporter plasmid using calcium phosphate transfection. Three control transfections were included: 1) 200 ng of an empty TALEN backbone and 10 ng of an SSA reporter plasmid, 2) 200 ng of an empty TALEN backbone and 10 ng of a pEGFP plasmid, and 3) 100 ng of each GFP-ZFN and 10 ng of an SSA reporter plasmid. Cells were harvested 48 h after transfection. The percentages of pEGFP-transfected samples expressing GFP were determined using an Accuri C6 flow cytometer, as an indication of transfection efficiency. Genomic DNA was isolated using QuickExtract DNA extraction solution (Epicentre) as described20. Sample were PCR amplified for 35 cycles (95° C., 30 s; 60° C., 30 s; 72° C., 60 s) in a 50 μl reaction that contains 2 μl of the extracted DNA, 2.5 μl of each 10 μM target region amplification primer (SSA-Cell-F4, 5′-[…] (SEQ ID NO: 183); SSA-Cell-R4, 5′-[…] (SEQ ID NO: 184)), and 25 μl of GoTaq green master mix (Promega). PCR reactions were then separated on 2% agarose gels and the percentages of SSA-repaired products were quantified using ImageJ.

## ACAAGACAGGTTTAAGGAGACCAAT (double strand) [S-11 half-site]
[1]
  activity: 1.5 % SSA

## AGACCACCAGCAGCCT (double strand) [S-23 half-site]
[2]
  activity: 11.6 % SSA

## ATCAGAAACCCAAGAGT (double strand) [S-36 half-site]
[3]
  activity: 7.3 % SSA

## ATCAGAAACCCAAGAGTCT (double strand) [S-34 half-site]
[4]
  activity: 14.8 % SSA

## ATCAGAAACCCAAGAGTCTT (double strand) [S-32 half-site]
[5]
  activity: 10.5 % SSA

## ATCAGAAACCCAAGAGTCTTCT (double strand) [S-30 half-site]
[6]
  activity: 17.9 % SSA

## ATCAGAAACCCAAGAGTCTTCTCT (double strand) [S-28 half-site]
[7]
  activity: 15.3 % SSA

## ATCAGAAACCCAAGAGTCTTCTCTGT (double strand) [S-26 half-site]
[8]
  activity: 11.7 % SSA

## ATTGCTTACATTTGCTTCTGACACAACT (double strand) [S-40 half-site]
[9]
  activity: 2.5 % SSA

## ATTGCTTACATTTGCTTCTGACACAACTGT (double strand) [S-41 half-site]
[10]
  activity: 3.1 % SSA

## CAAACAGACACCATGGTGCACCT (double strand) [S-03 half-site]
[11]
  activity: 4.9 % SSA

## CAAACAGACACCATGGTGCACCTGA (double strand) [S-04 half-site]
[12]
  activity: 2.5 % SSA

## CACCTTGCCCCACAGGGCAGTA (double strand) [S-08 half-site]
[13]
  activity: 1.9 % SSA

## CACCTTGCCCCACAGGGCAGTAA (double strand) [S-06 half-site]
[14]
  activity: 5.3 % SSA

## CCAAGGGTAGACCACCAGCAGCCT (double strand) [S-24 half-site]
[15]
  activity: 1.3 % SSA

## CCACGTTCACCTTGCCCCACAGGGCAGT (double strand) [S-22 half-site]
[16]
  activity: 4.5 % SSA

## CCTGTGGAGAAGTCTGCCGT (double strand) [S-15 half-site]
[17]
  activity: 3 % SSA

## CTATTGCTTACATTTGCTTCTGACACAACT (double strand) [S-38 half-site]
[18]
  activity: 3.7 % SSA

## CTCCACAGGAGTCAGGTGCACCAT (double strand) [S-25 half-site]
[19]
  activity: 11.1 % SSA

## CTGATAGGCACTGACTCT (double strand) [S-16 half-site]
[20]
  activity: 30.9 % SSA

## CTGATAGGCACTGACTCTCT (double strand) [S-17 half-site]
[21]
  activity: 29.2 % SSA

## CTGATAGGCACTGACTCTCTCT (double strand) [S-18 half-site]
[22]
  activity: 26.2 % SSA

## CTGATAGGCACTGACTCTCTCTGCCT (double strand) [S-19 half-site]
[23]
  activity: 17.2 % SSA

## CTGATAGGCACTGACTCTCTCTGCCTAT (double strand) [S-20 half-site]
[24]
  activity: 16.6 % SSA

## CTGATAGGCACTGACTCTCTCTGCCTATT (double strand) [S-21 half-site]
[25]
  activity: 21.8 % SSA

## CTTGGGTTTCTGATAGGCACTGACTCTCT (double strand) [S-13 half-site]
[26]
  activity: 13 % SSA

## GCCCCACAGGGCAGTAACGGCAGA (double strand) [S-09 half-site]
[27]
  activity: 6.2 % SSA

## GCCTATCAGAAACCCAAGAGT (double strand) [S-37 half-site]
[28]
  activity: 4.8 % SSA

## GCCTATCAGAAACCCAAGAGTCT (double strand) [S-35 half-site]
[29]
  activity: 8.1 % SSA

## GCCTATCAGAAACCCAAGAGTCTT (double strand) [S-33 half-site]
[30]
  activity: 4.9 % SSA

## GCCTATCAGAAACCCAAGAGTCTTCT (double strand) [S-31 half-site]
[31]
  activity: 9.7 % SSA

## GCCTATCAGAAACCCAAGAGTCTTCTCT (double strand) [S-29 half-site]
[32]
  activity: 5.3 % SSA

## GCCTATCAGAAACCCAAGAGTCTTCTCTGT (double strand) [S-27 half-site]
[33]
  activity: 3.5 % SSA

## GCTTACATTTGCTTCTGACACAACT (double strand) [S-42 half-site]
[34]
  activity: 4.3 % SSA

## GCTTACATTTGCTTCTGACACAACTGT (double strand) [S-43 half-site]
[35]
  activity: 4.1 % SSA

## GCTTACATTTGCTTCTGACACAACTGTGT (double strand) [S-44 half-site]
[36]
  activity: 3.2 % SSA

## GCTTACATTTGCTTCTGACACAACTGTGTT (double strand) [S-10 half-site]
[37]
  activity: 8.4 % SSA

## GGGTTTCTGATAGGCACTGACTCTCTCT (double strand) [S-39 half-site]
[38]
  activity: 5 % SSA

## TGCCCCACAGGGCAGT (double strand) [S-12 half-site]
[39]
  activity: 11 % SSA

B1: S-05 half-site (dsDNA)
DNA 1: CACCTTGCCCCACAGGGCAGT
DNA 2: ACTGCCCTGTGGGGCAAGGTG
[40]
  activity: 6.1 % SSA

Reference: patent US20150132821, “Systems and Methods for Improving Nuclease Specificity and Activity” (Georgia Tech Research Corporation, published 2015)
